Assay results from patent publication US20250250357A1 (NANJING ZAIMING PHARMACEUTICAL, published 2025).

T1: monkey MSLN full-length protein (NCBI: XP_028696439.1) expressed on HEK293T-monkey MSLN cells (monkey)
T1 construct: Whole encoded precursor
T1 chain: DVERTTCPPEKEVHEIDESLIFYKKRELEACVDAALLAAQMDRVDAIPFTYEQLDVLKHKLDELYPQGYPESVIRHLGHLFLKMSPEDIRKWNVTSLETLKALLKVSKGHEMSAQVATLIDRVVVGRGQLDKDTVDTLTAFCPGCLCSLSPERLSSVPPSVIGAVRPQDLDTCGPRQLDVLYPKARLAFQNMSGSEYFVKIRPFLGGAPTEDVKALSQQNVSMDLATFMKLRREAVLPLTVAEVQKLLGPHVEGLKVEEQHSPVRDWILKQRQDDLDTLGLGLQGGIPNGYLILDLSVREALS

T2: human MSLN-R1-his protein (human, UniProt Q13421 296-390)
T2 construct: Self-made in HEK293E cells; also called human MSLN-R1 protein; hMSLN-R1-his; not shown: His tag
T2 chain: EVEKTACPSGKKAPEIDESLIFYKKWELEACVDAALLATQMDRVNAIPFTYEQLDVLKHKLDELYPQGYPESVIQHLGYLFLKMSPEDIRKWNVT


Legend:
[1] = molecular target: T1, monkey MSLN full-length protein (NCBI: …); assay: FACS on HEK293T-monkey MSLN cells
Experimental: (§1) The desired cells were expanded to the logarithmic growth phase in a T-75 cell culture flask. […] After the cells from the previous step were subjected to cell counting, the cell pellet was resuspended to 2×10⁶ cells/mL in a blocking buffer of [PBS+2% (w/w) BSA] and added into a 96-well FACS reaction plate at 50 μL/well. A chimeric antibody (a sample to be tested) was added at 50 μL/well, and the plate was incubated on ice for 2 h. […] After the plate was centrifuged and washed 5 times with a PBST buffer, assay and analysis were performed by FACS (FACS CantoII, purchased from BD). Data analysis was performed by software (Flowjo) to obtain the mean fluorescence intensity (MFI) of the cells.

[2] = molecular target: T3, human MSLN full-length protein (NCBI: AAH09272.1) expressed on HEK293T-hMSLN-B8 cells (human, UniProt Q13421 296-598); assay: FACS on HEK293T-hMSLN-B8 cells
T3 construct: Whole encoded precursor
Experimental: as §1

[3] = molecular target: T4, human MSLN protein endogenously expressed on OVCAR3 tumor cells (human, UniProt Q13421 296-598); assay: FACS on OVCAR3 cells
T4 construct: whole, on cells; Endogenous target on OVCAR3 cells; kept apart from the recombinant full-length construct; also called mesothelin
Experimental: as §1

[4] = molecular target: T5, human MSLN-R3 protein (Met487-Ser606 of NCBI AAH09272.1) expressed on HEK293T-hMSLN-R3 cells (human, UniProt Q13421 487-606); assay: FACS on HEK293T-hMSLN-R3 cells
T5 construct: also called Region3
Experimental: as §1

[5] = molecular target: T6, human MSLN-R3-his protein (human, UniProt Q13421 487-598); assay: ELISA, coated antigen; antibody 1 nM
T6 construct: also called human MSLN-R3 protein; hMSLN-R3-his; not shown: His tag

[6] = molecular target: T6, human MSLN-R3-his protein; assay: ELISA, coated antigen; antibody 0.1 nM
Experimental: (§2) The plate was sealed with a plastic film and incubated at 4° C. overnight. The next day, the plate was washed twice with PBST, and a blocking buffer [PBS+2% (w/w) BSA] was added for blocking at room temperature for 2 h. The blocking buffer was discarded, and a chimeric antibody or negative control antibody serially diluted from 100 nM was added at 50 μL/well. After incubation at 37° C. for 2 h, the plate was washed 3 times with PBST. […] After incubation at 37° C. for 2 h, the plate was washed 5 times with PBST. A TMB substrate was added at 50 μL/well for incubation at room temperature for 5-10 min, and then a stop solution (1.0 N HCl) was added at 50 μL/well.

[7] = molecular target: T7, human MSLN-R3-3 polypeptide (human); assay: ELISA, coated antigen; antibody 0.1 nM
T7 construct: also called human MSLN-R3-3 protein; hMSLN-R3-3
Experimental: as §2

[8] = molecular target: T7, human MSLN-R3-3 polypeptide; assay: ELISA, coated antigen; antibody 0.01 nM
Experimental: as §2

[9] = molecular target: T6, human MSLN-R3-his protein; assay: ELISA, coated antigen; antibody 0.01 nM
Experimental: as §2

[10] = molecular target: T6, human MSLN-R3-his protein; assay: ELISA, coated antigen; antibody 0.0001 nM
Experimental: as §2

[11] = molecular target: T7, human MSLN-R3-3 polypeptide; assay: ELISA, coated antigen; antibody 0.0001 nM
Experimental: as §2

[12] = molecular target: T7, human MSLN-R3-3 polypeptide; assay: ELISA, coated antigen; antibody 1 nM
Experimental: as §2

[13] = molecular target: T6, human MSLN-R3-his protein; assay: ELISA, coated antigen; antibody 0.001 nM
Experimental: as §2

[14] = molecular target: T7, human MSLN-R3-3 polypeptide; assay: ELISA, coated antigen; antibody 100 nM
Experimental: as §2

[15] = molecular target: T7, human MSLN-R3-3 polypeptide; assay: ELISA, coated antigen; no antibody (blank, column 'none')
Experimental: as §2

[16] = molecular target: T7, human MSLN-R3-3 polypeptide; assay: ELISA, coated antigen; antibody 10 nM
Experimental: as §2

[17] = molecular target: T6, human MSLN-R3-his protein; assay: ELISA, coated antigen; no antibody (blank, column 'none')
Experimental: as §2

[18] = molecular target: T6, human MSLN-R3-his protein; assay: ELISA, coated antigen; antibody 10 nM
Experimental: as §2

[19] = molecular target: T6, human MSLN-R3-his protein; assay: ELISA, coated antigen; antibody 100 nM
Experimental: as §2

[20] = molecular target: T7, human MSLN-R3-3 polypeptide; assay: ELISA, coated antigen; antibody 0.001 nM
Experimental: as §2

[21] = molecular target: T2, human MSLN-R1-his protein; assay: ELISA on coated antigen, antibody 0.1 nM
Experimental: as §2

[22] = molecular target: T8, human MSLN-FL-his protein (human, UniProt Q13421 296-580); assay: ELISA on coated antigen, antibody 0.001 nM
T8 construct: Self-made in HEK293E cells; also called human MSLN full-length protein; hMSLN-FL-his; not shown: His tag

[23] = molecular target: T8, human MSLN-FL-his protein; assay: ELISA on coated antigen, antibody 0.0001 nM
Experimental: as §2

[24] = molecular target: T2, human MSLN-R1-his protein; assay: ELISA on coated antigen, antibody 100 nM
Experimental: as §2

[25] = molecular target: T8, human MSLN-FL-his protein; assay: ELISA on coated antigen, antibody 1 nM
Experimental: as §2

[26] = molecular target: T8, human MSLN-FL-his protein; assay: ELISA on coated antigen, antibody 0.01 nM
Experimental: as §2

[27] = molecular target: T8, human MSLN-FL-his protein; assay: ELISA on coated antigen, antibody 100 nM
Experimental: as §2

[28] = molecular target: T2, human MSLN-R1-his protein; assay: ELISA on coated antigen, antibody 1 nM
Experimental: as §2

[29] = molecular target: T2, human MSLN-R1-his protein; assay: ELISA on coated antigen, antibody 0.01 nM
Experimental: as §2

[30] = molecular target: T2, human MSLN-R1-his protein; assay: ELISA on coated antigen, antibody 10 nM
Experimental: as §2

[31] = molecular target: T8, human MSLN-FL-his protein; assay: ELISA on coated antigen, no antibody (column none)
Experimental: as §2

[32] = molecular target: T8, human MSLN-FL-his protein; assay: ELISA on coated antigen, antibody 0.1 nM
Experimental: as §2

[33] = molecular target: T2, human MSLN-R1-his protein; assay: ELISA on coated antigen, no antibody (column none)
Experimental: as §2

[34] = molecular target: T2, human MSLN-R1-his protein; assay: ELISA on coated antigen, antibody 0.001 nM
Experimental: as §2

[35] = molecular target: T2, human MSLN-R1-his protein; assay: ELISA on coated antigen, antibody 0.0001 nM
Experimental: as §2

[36] = molecular target: T8, human MSLN-FL-his protein; assay: ELISA on coated antigen, antibody 10 nM
Experimental: as §2

T4 sequence (Q13421 other isoform, or with tags, fused parts or gaps): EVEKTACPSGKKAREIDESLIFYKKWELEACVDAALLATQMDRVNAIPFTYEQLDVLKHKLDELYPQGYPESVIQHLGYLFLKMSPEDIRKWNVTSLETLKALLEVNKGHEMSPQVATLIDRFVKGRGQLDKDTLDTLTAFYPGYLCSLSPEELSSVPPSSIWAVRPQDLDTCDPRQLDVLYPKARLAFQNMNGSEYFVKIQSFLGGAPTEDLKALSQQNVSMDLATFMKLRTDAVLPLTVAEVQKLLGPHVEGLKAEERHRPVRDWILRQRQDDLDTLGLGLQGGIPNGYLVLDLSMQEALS
T3 sequence (Q13421 other isoform, or with tags, fused parts or gaps limits assumed): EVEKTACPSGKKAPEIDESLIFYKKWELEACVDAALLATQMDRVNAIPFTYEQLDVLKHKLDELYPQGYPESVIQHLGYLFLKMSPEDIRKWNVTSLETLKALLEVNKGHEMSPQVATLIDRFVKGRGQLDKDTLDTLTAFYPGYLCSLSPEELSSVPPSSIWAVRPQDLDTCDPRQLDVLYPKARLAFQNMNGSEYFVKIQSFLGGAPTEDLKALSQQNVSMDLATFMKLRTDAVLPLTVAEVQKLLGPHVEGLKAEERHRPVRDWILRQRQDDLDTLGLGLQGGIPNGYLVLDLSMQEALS
T8 sequence (Q13421 other isoform, or with tags, fused parts or gaps): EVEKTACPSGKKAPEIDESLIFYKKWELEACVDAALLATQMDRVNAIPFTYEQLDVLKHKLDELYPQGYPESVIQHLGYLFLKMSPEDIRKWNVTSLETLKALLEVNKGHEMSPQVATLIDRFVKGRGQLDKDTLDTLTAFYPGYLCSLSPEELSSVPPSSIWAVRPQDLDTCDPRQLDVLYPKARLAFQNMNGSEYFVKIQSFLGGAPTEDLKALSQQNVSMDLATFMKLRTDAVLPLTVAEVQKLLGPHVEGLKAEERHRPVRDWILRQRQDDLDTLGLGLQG
T5 sequence (Q13421 495-614): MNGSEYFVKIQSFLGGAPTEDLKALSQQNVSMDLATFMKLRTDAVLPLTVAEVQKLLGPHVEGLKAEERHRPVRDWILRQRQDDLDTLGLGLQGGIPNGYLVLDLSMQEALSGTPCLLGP
T6 sequence (Q13421 495-606): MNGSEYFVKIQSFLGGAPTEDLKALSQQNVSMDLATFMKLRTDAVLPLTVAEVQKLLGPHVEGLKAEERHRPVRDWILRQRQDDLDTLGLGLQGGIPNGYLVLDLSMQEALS

Row | Binder | Maximum mean fluorescence intensity [1] | EC50 [2] [nM] | Maximum mean fluorescence intensity [2] | Maximum mean fluorescence intensity [3] | Maximum mean fluorescence intensity [4] | OD450 [5] [OD450] | OD450 [6] [OD450] | OD450 [7] [OD450] | OD450 [8] [OD450] | OD450 [9] [OD450] | OD450 [10] [OD450] | OD450 [11] [OD450] | OD450 [12] [OD450] | OD450 [13] [OD450] | OD450 [14] [OD450] | OD450 [15] [OD450] | OD450 [16] [OD450] | OD450 [17] [OD450] | OD450 [18] [OD450] | OD450 [19] [OD450] | also measured
1 | S009-F5-9.16 (antibody, human IgG1, kappa, V domains shown, human-murine chimeric antibody, human IgG1/kappa constant regions) VH: EVQLRQSGPVLVKPGASVKMSCKASGYTFTDYFMNWVKPSHGKSLEWIGVINPSNGVINYNQRFKGKATLTVDKSSSTAYMELNSLTSEDSAVYYCARSYDFAWFAYWGQGTLVTVSA VL: DVLMTQTPLSLPVSLGDQASISCRSSQNIVHSNGNTYLEWYLQKPGQSPKLLIYTVSNRFSGVPDRFSGSGSGTDFTLKISRVEAEDLGVYYCFQGSHVPYTFGGGTKLEIKR | 365 | 0.76 | 240000 | 3510 | 63900 | – | – | – | – | – | – | – | – | – | – | – | – | – | – | – | binding result [1]: no binding; EC50 [3]: 0.82 nM; EC50 [4]: 0.35 nM
2 | S009-F3.23.1 (antibody, human IgG1, kappa, V domains shown, Human-murine chimeric antibody, human IgG1/kappa constant regions) VH: QVQLQQSGADLVRPGASVTLSCKASGYTFTDYEMHWVKQTPVHGLEWIGAIDPETGDTVYNQNFKGKAILTADKSSSTAYMELRSLTSEDSAVYYCTRYGYDWGWGQGTTLTVSS VL: not shown | – | – | – | – | – | 1.77 | 1.51 | 1.54 | 0.57 | 0.48 | 0.08 | 0.09 | 1.87 | 0.12 | 2.33 | 0.09 | 2.01 | 0.1 | 1.95 | 2.31 | OD450 [20]: 0.18 OD450
3 | S009-F4-94.15 (antibody, human IgG1, kappa, V domains shown, human-murine chimeric antibody, human IgG1/kappa constant regions) VH: QVQLHQPGAELVRPGSSVKLSCKASGYTFTSYWVHWVQQRPRQGLEWIGNIDPSDSEIHYNQKFKDKATLTVDKSSSTAYIHLSRLTSEDSAIYYCVRGGVPWFAYWGQGTLVTVSA VL: QIVLTQSPAIMSASPGEKVTLTCSASSSVSSTYLYWFQQKPGSSPKVWIYSTSNLASGVPARFSGSGSGTSYSLTISSMEAEDAASYFCHQWISYPYTFGGGTKLEIKR | 29900 | 3.06 | 113000 | 7060 | 84 | – | – | – | – | – | – | – | – | – | – | – | – | – | – | – | EC50 [1]: 0.37 nM; EC50 [3]: 0.65 nM; binding result [4]: no binding
4 | S009-F3.45.21 (antibody, human IgG1, kappa, V domains shown, Human-murine chimeric antibody, human IgG1/kappa constant regions) VH: DVQLQESGPGLVKPSQSLSLTCSVTGDSITSGYYWNWIRQFPGNKLEWMGFIRFDGTNNYNPSLKNRISITRDTSKNQFFLKLNSVTTEDTATYYCAREGSYAPAWFAYWGQGTLVTVSA VL: QIVLTQSPAIMSASPGEKVTMTCSASSSLSYMYWYQQKPGSSPRLLIYDTSNLASGVPVRFSGSGSGTSYSLTISRMEAEDAATYYCQQWSSYPPTFGGGTKLEIKR | – | – | – | – | – | 0.05 | 0.06 | 0.08 | 0.07 | 0.07 | 0.09 | 0.1 | 0.07 | 0.24 | 0.11 | 0.07 | 0.08 | 0.09 | 0.07 | 0.09 | OD450 [20]: 0.25 OD450
5 | S009-F3.51.8 (antibody, human IgG1, kappa, V domains shown, Human-murine chimeric antibody, human IgG1/kappa constant regions) VH: QVQLQQSGAELVRPGASVTLSCKASGYTFTDYEMHWVKQTPVHGLEWIGGFDPETGGTAHNQKFKGKAILTADKSSSTAYMELRSLTSEDSAVYYCSNYGSIWGDCWGQGTSVTVSS VL: not shown | – | – | – | – | – | 1.83 | 1.55 | 1.42 | 0.51 | 0.41 | 0.09 | 0.09 | 1.8 | 0.12 | 2.04 | 0.07 | 1.92 | 0.09 | 1.91 | 2.18 | OD450 [20]: 0.13 OD450
6 | S009-F3.80.22 (antibody, human IgG1, kappa, V domains shown, Human-murine chimeric antibody: murine VH/VL on human IgG1 heavy and kappa light constant regions) VH: QVQLQQSGAELVRPGASVTLSCKASGYTFTDYEIHWVKQTPVHGLEWIGAFDPEIGGSAYNQKFKDRATLTADKSSSTAYMELHSLTAEDSAVYYCTDYYGSSSGYFDVWGTGTTVTVSS VL: DVVMTQTPLSLPVSLGDQASISCRSSQSLEHNNGNTYLHWFLHKPGQSPKLLIYKVSNRFSGVPDRFSGSGSGTDFTLKISRVEAEDLGVYFCSQSTHVPFTFGSGTKLEIKR | – | – | – | – | – | – | – | – | – | – | – | – | – | – | – | – | – | – | – | – | OD450 [21]: 0.06 OD450; OD450 [22]: 0.14 OD450; OD450 [23]: 0.07 OD450; OD450 [24]: 0.07 OD450; OD450 [25]: 1.97 OD450; OD450 [26]: 0.69 OD450; OD450 [27]: 2.31 OD450; OD450 [28]: 0.05 OD450; OD450 [29]: 0.06 OD450; OD450 [30]: 0.06 OD450; OD450 [31]: 0.07 OD450; OD450 [32]: 1.71 OD450; OD450 [33]: 0.06 OD450; OD450 [34]: 0.06 OD450; OD450 [35]: 0.06 OD450; OD450 [36]: 1.99 OD450
7 | S009-F4-127.10 (antibody, human IgG1, kappa, V domains shown, human-murine chimeric antibody, human IgG1/kappa constant regions) VH: EVQLQQSGPVLVKPGASVKMSCKASGYTFTDYYMNWVKQSHGKSPEWIGVINPYNDVISYNQKFKGKATLTVDKSSSTAYMELNSLTSEDSAVYYCANYGSSYYAMDYWGQGTSVTVSS VL: DVVMTQTPLSLSVSLGDQASISCRSSQSLVHSNGNTYLQWSLQKPGQSPNLLIYKVSNRFSGVPDRFSGSGSGTDFTLKISRVEAEDLGVYFCSQTTHVPFTFGGGTKLEIRR | 41100 | 6.07 | 102000 | 3360 | 14200 | – | – | – | – | – | – | – | – | – | – | – | – | – | – | – | EC50 [1]: 3.42 nM; EC50 [4]: 1.97 nM
